The results in this text go back to paper doi:10.1101/2025.01.02.631089, “The atypical filament assembly underpins the inflammasome-independent functions of IFI16” (bioRxiv, 2025).

The series concerns the molecule itself. As to the kind of experiment: cryo-EM structure; auto-assembled filaments of recombinant IFI16 PYD, 73 uM, in 40 mM HEPES pH 7.4, 160 mM NaCl, 1 mM EDTA, 1 mM DTT; helical reconstruction.

B1: IFI16^PYD (pyrin domain of human Interferon Inducible Protein 16, residues 1-94) (domain or fragment, UniProt Q16666 1-94, looked up)
chain: MGKKYKNIVLLKGLEVINDYHFRMVKSLLSNDLKLNLKMREEYDKIQIADLMEEKFRGDAGLGKLIKIFEDIPTLEDLAETLKKEKLKVKGPAL
notes: Interferon inducible protein 16 (IFI16), human, pyrin domain, residues 1-94; Assembles into a helical filament (three-start helix, 134.6 degrees rotation, 5.6 Å rise, no rotational symmetry); The number of copies in a filament is not defined; Cloned in pET21b; also called IFI16^PYD filament; source: E. coli BL21(DE3), purified (Ni-NTA, Superdex 75 SEC)
On to B1, for which the binding result was “binds”.
